Results reported in US20260274985A1 (MYTHIC THERAPEUTICS, published 2026).

T1: Human TROP2 Protein, His Tag (Acro Biosystems) (human, UniProt P09758 27-274)
T1 construct: not shown: His tag
T1 sequence (looked up): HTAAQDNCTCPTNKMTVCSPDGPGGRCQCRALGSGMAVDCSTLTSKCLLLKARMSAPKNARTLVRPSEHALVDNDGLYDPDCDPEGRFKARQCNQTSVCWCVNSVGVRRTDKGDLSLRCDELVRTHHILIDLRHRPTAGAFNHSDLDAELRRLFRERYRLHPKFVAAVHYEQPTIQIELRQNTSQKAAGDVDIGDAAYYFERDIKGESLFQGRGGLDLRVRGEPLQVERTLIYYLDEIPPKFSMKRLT

T2: Human TROP2 Protein, His Tag (Acro Biosystems) (human, UniProt P09758 27-274)
T2 construct: Bought antigen used at 50 nM in the Octet screen; also called TACSTD2; not shown: His tag
T2 sequence (looked up): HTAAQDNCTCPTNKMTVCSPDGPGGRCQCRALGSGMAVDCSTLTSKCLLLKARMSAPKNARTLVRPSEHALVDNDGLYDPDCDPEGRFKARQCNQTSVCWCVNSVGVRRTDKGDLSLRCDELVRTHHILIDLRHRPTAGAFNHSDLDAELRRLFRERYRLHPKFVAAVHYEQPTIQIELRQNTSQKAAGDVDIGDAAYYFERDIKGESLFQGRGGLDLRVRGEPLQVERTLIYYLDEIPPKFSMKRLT

B1: MYT11690 (antibody, V domains shown)
VH: QVQLVQSGAEVKKPGASVKVSCKASGYTFTTAGMQWVRQAPGQGLEWMGWINTHSGVPKYAEDFKGRVTISADTSTSTAYLQLSSLKSEDTAVYYCARSGFGSSYWYFDVWGQGTLVTVSS
VL: DIQMTQSPSSLSASVGDRVTITCKASQDVSTAVAWYQQKPGKAPKLLIYSAHYRYTGVPSRFSGSGSGTDFTLTISSLQPEDFAVYYCQQHYITPLTFGQGTKLEIK
notes: IgG; also called Datopotamab LC variant
B2: MYT13265 (antibody, V domains shown)
VH: QVQLVQSGAEVKKPGASVKVSCKASGYTFTTAGMQWVRQAPGQGLEWMGWINTHSGVPKYAEDFKGRVTISADTSTSTAYLQLSSLKSEDTAVYYCAHSGFGSSYWYFDVWGQGTLVTVSS
VL: DIQMTQSPSSLSASVGDRVTITCKASQDVSTAVAWYQQKPGKAPKLLIYSASHRYTGVPSRFSGSGSGTDFTLTISSLQPEDFAVYYCQQHYITPLTFGQGTKLEIK
notes: Full-length IgG; also called Datopotamab HC-LC pairing variant
B3: MYT11691 (antibody, V domains shown)
VH: QVQLVQSGAEVKKPGASVKVSCKASGYTFTTAGMQWVRQAPGQGLEWMGWINTHSGVPKYAEDFKGRVTISADTSTSTAYLQLSSLKSEDTAVYYCARSGFGSSYWYFDVWGQGTLVTVSS
VL: DIQMTQSPSSLSASVGDRVTITCKASQDVSTAVAWYQQKPGKAPKLLIYSASHRYTGVPSRFSGSGSGTDFTLTISSLQPEDFAVYYCQQHYITPLTFGQGTKLEIK
notes: as for B1
B4: MYT11745 (antibody, V domains shown)
VH: QVQLQESGPGLVKPSETLSLTCTVSGGSISSYGVHWIRQPPGKGLEWIGVIWTSGVTDYNSALMGRVTISVDTSKNQFSLKLSSVTAADTAVYYCARDGDYDRYTMDYWGQGTLVTVSS
VL: DIVMTQSPDSLAVSLGERATINCRHSKSVSTSGYSYMHWYQQKPGQPPKLLIYLASNLESGVPDRFSGSGSGTDFTLTISSLQAEDVAVYYCQHSRELPYTFGQGTKLEIK
notes: hu7E6SVG variant, His at LCV position 25 (L1 02); screened as IgG in Expi293 supernatant
B5: MYT13283 (antibody, V domains shown)
VH: QVQLQESGPGLVKPSETLSLTCTVSGGSISSYGVHWIRQPPGKGLEWIGVIWTSGVTDYNSALMGRVTISVDTSKNQFSLKLSSVTAADTAVYYCARDGDYHRYTMDYWGQGTLVTVSS
VL: DIVMTQSPDSLAVSLGERATINCRASKSVSTSGYSYMHWYQQKPGQPPKLLIYLASNLEHGVPDRFSGSGSGTDFTLTISSLQAEDVAVYYCQHSRELPYTFGQGTKLEIK
notes: Full-length IgG; also called h7E6SVG HC-LC pairing variant
B6: MYT11752 (antibody, V domains shown)
VH: QVQLQESGPGLVKPSETLSLTCTVSGGSISSYGVHWIRQPPGKGLEWIGVIWTSGVTDYNSALMGRVTISVDTSKNQFSLKLSSVTAADTAVYYCARDGDYDRYTMDYWGQGTLVTVSS
VL: DIVMTQSPDSLAVSLGERATINCRASKSVSTHGYSYMHWYQQKPGQPPKLLIYLASNLESGVPDRFSGSGSGTDFTLTISSLQAEDVAVYYCQHSRELPYTFGQGTKLEIK
notes: hu7E6SVG variant, His at LCV position 32 (L1 09); screened as IgG in Expi293 supernatant
B7: MYT11754 (antibody, V domains shown)
VH: QVQLQESGPGLVKPSETLSLTCTVSGGSISSYGVHWIRQPPGKGLEWIGVIWTSGVTDYNSALMGRVTISVDTSKNQFSLKLSSVTAADTAVYYCARDGDYDRYTMDYWGQGTLVTVSS
VL: DIVMTQSPDSLAVSLGERATINCRASKSVSTSGHSYMHWYQQKPGQPPKLLIYLASNLESGVPDRFSGSGSGTDFTLTISSLQAEDVAVYYCQHSRELPYTFGQGTKLEIK
notes: hu7E6SVG variant, His at LCV position 34 (L1 11); screened as IgG in Expi293 supernatant
B8: MYT11750 (antibody, V domains shown)
VH: QVQLQESGPGLVKPSETLSLTCTVSGGSISSYGVHWIRQPPGKGLEWIGVIWTSGVTDYNSALMGRVTISVDTSKNQFSLKLSSVTAADTAVYYCARDGDYDRYTMDYWGQGTLVTVSS
VL: DIVMTQSPDSLAVSLGERATINCRASKSVHTSGYSYMHWYQQKPGQPPKLLIYLASNLESGVPDRFSGSGSGTDFTLTISSLQAEDVAVYYCQHSRELPYTFGQGTKLEIK
notes: hu7E6SVG variant, His at LCV position 30 (L1 07); screened as IgG in Expi293 supernatant
B9: MYT11751 (antibody, V domains shown)
VH: QVQLQESGPGLVKPSETLSLTCTVSGGSISSYGVHWIRQPPGKGLEWIGVIWTSGVTDYNSALMGRVTISVDTSKNQFSLKLSSVTAADTAVYYCARDGDYDRYTMDYWGQGTLVTVSS
VL: DIVMTQSPDSLAVSLGERATINCRASKSVSHSGYSYMHWYQQKPGQPPKLLIYLASNLESGVPDRFSGSGSGTDFTLTISSLQAEDVAVYYCQHSRELPYTFGQGTKLEIK
notes: hu7E6SVG variant, His at LCV position 31 (L1 08); screened as IgG in Expi293 supernatant
B10: MYT11748 (antibody, V domains shown)
VH: QVQLQESGPGLVKPSETLSLTCTVSGGSISSYGVHWIRQPPGKGLEWIGVIWTSGVTDYNSALMGRVTISVDTSKNQFSLKLSSVTAADTAVYYCARDGDYDRYTMDYWGQGTLVTVSS
VL: DIVMTQSPDSLAVSLGERATINCRASKHVSTSGYSYMHWYQQKPGQPPKLLIYLASNLESGVPDRFSGSGSGTDFTLTISSLQAEDVAVYYCQHSRELPYTFGQGTKLEIK
notes: hu7E6SVG variant, His at LCV position 28 (L1 05); screened as IgG in Expi293 supernatant
B11: MYT11747 (antibody, V domains shown)
VH: QVQLQESGPGLVKPSETLSLTCTVSGGSISSYGVHWIRQPPGKGLEWIGVIWTSGVTDYNSALMGRVTISVDTSKNQFSLKLSSVTAADTAVYYCARDGDYDRYTMDYWGQGTLVTVSS
VL: DIVMTQSPDSLAVSLGERATINCRASHSVSTSGYSYMHWYQQKPGQPPKLLIYLASNLESGVPDRFSGSGSGTDFTLTISSLQAEDVAVYYCQHSRELPYTFGQGTKLEIK
notes: hu7E6SVG variant, His at LCV position 27 (L1 04); screened as IgG in Expi293 supernatant
B12: MYT11753 (antibody, V domains shown)
VH: QVQLQESGPGLVKPSETLSLTCTVSGGSISSYGVHWIRQPPGKGLEWIGVIWTSGVTDYNSALMGRVTISVDTSKNQFSLKLSSVTAADTAVYYCARDGDYDRYTMDYWGQGTLVTVSS
VL: DIVMTQSPDSLAVSLGERATINCRASKSVSTSHYSYMHWYQQKPGQPPKLLIYLASNLESGVPDRFSGSGSGTDFTLTISSLQAEDVAVYYCQHSRELPYTFGQGTKLEIK
notes: hu7E6SVG variant, His at LCV position 33 (L1 10); screened as IgG in Expi293 supernatant
B13: MYT11746 (antibody, V domains shown)
VH: QVQLQESGPGLVKPSETLSLTCTVSGGSISSYGVHWIRQPPGKGLEWIGVIWTSGVTDYNSALMGRVTISVDTSKNQFSLKLSSVTAADTAVYYCARDGDYDRYTMDYWGQGTLVTVSS
VL: DIVMTQSPDSLAVSLGERATINCRAHKSVSTSGYSYMHWYQQKPGQPPKLLIYLASNLESGVPDRFSGSGSGTDFTLTISSLQAEDVAVYYCQHSRELPYTFGQGTKLEIK
notes: hu7E6SVG variant, His at LCV position 26 (L1 03); screened as IgG in Expi293 supernatant
B14: MYT11749 (antibody, V domains shown)
VH: QVQLQESGPGLVKPSETLSLTCTVSGGSISSYGVHWIRQPPGKGLEWIGVIWTSGVTDYNSALMGRVTISVDTSKNQFSLKLSSVTAADTAVYYCARDGDYDRYTMDYWGQGTLVTVSS
VL: DIVMTQSPDSLAVSLGERATINCRASKSHSTSGYSYMHWYQQKPGQPPKLLIYLASNLESGVPDRFSGSGSGTDFTLTISSLQAEDVAVYYCQHSRELPYTFGQGTKLEIK
notes: hu7E6SVG variant, His at LCV position 29 (L1 06); screened as IgG in Expi293 supernatant
B15: MYT11755 (antibody, V domains shown)
VH: QVQLQESGPGLVKPSETLSLTCTVSGGSISSYGVHWIRQPPGKGLEWIGVIWTSGVTDYNSALMGRVTISVDTSKNQFSLKLSSVTAADTAVYYCARDGDYDRYTMDYWGQGTLVTVSS
VL: DIVMTQSPDSLAVSLGERATINCRASKSVSTSGYHYMHWYQQKPGQPPKLLIYLASNLESGVPDRFSGSGSGTDFTLTISSLQAEDVAVYYCQHSRELPYTFGQGTKLEIK
notes: hu7E6SVG variant, His at LCV position 35 (L1 12); screened as IgG in Expi293 supernatant

Tests used:
[1] = molecular target: T1, Human TROP2 Protein, His Tag (Acro …); experiment: Octet (BLI); antigen and pH not given
[2] = molecular target: T2, Human TROP2 Protein, His Tag (Acro …); experiment: BLI (Octet) [1/2]
Procedure: After allowing for four days of protein expression, cell culture supernatants were collected, quantified by SDS-PAGE analysis (DNS), and the pH dependence of the variant was evaluated using biolayer interferometry (BLI) on an Octet RED 96e instrument. Briefly, cell culture supernatants were diluted based on qualitative expression level of the variant determined by visual examination of SDS-PAGE gels, 5 μL of cell culture supernatant was diluted into 195 μL of 1×PBST, pH 7.4 for high expressors, 25 μL of cell culture supernatant was diluted into 175 μL of 1×PBST, pH 7.4 for medium expressors and 100 μL of cell culture supernatant was diluted into 100 μL of 1×PBST, pH 7.4 for low expressors for loading onto the sensor tips. The resulting diluted supernatants were then captured on an anti-human Fc sensor (Forte Bio). A baseline was established using 1×PBST (50 mM Potassium Phosphate Buffer+150 mM NaCl+0.05% Tween 20) pH 7.4, and the sensor was associated with 50 nM of TROP2 (Human TROP2 Protein, His Tag, Acro Biosystems) in 1×PBST pH 7.4 for 120 sec to generate an association curve. In the dissociation phase, the antibody-antigen complex on the sensor was exposed to 1×PBST pH 7.4 or pH 5.4, for 300 sec. Association and dissociation phase curves were examined for the starting ABPC antibody (with no substitutions) and each corresponding antibody variant at pH 5.4 and pH 7.4 to inform on two criteria: a) enhanced dissociation (i.e., higher koff values) at pH 5.4 due to histidine or alanine substitution compared to the starting ABPC, (with no substitutions), and b) reduced dissociation at pH 7.4 (i.e., lower koff values) compared to pH 5.4 in the antibody variant itself and with the starting ABPC (with no substitutions). […] It was also noted that while some mutations obliterated TROP2 binding, others were tolerated with little or n change in TROP2 binding kinetics.

Binder	Kd [1]	Octet response at 33.33 nM (Y-Axis) nm [1]	binding result [2]
B1	3.4 nM	0.0911 nm	–
B2	9.5 nM	0.0712 nm	–
B3	6.03 nM	0.0719 nm	–
B4	–	–	binds
B5	5.32 nM	0.108 nm	–
B6	–	–	binds
B7	–	–	binds
B8	–	–	binds
B9	–	–	no binding (tested: 50 nM)
B10	–	–	binds
B11	–	–	binds
B12	–	–	binds
B13	–	–	binds
B14	–	–	no binding (tested: 50 nM)
B15	–	–	binds
